Assay results: patent publication US20240034783A1 (SOTIO BIOTECH A S, published 2024)

Tests used:
human CLDN18.2 [1] = target: T1, human CLDN18.2 (human); experiment: flow cytometry titration, PA-TU-8988S-High cells
T1 construct: also called huCLDN18.2; hCLDN18.2
Description: (§1) In order to have a more homogenous cell population, the cells were sorted by FACS to select only cells with a the higher CLDN18.2 expression. […] After wash in FACS buffer, the cells were incubated with the PE-labeled Fey specific IgG goat anti-human secondary antibody (eBioscience) on ice for 30 min. After wash, the stained cells were resuspended in FACS buffer, analyzed and sorted by a FACSAria™ instrument, separating medium expressing cells from high expressing cells (FIG. 2B). […] HEK293T cells overexpressing CLDN18.2 or CLDN18.1 were generated as described in Example 3 and the expression of CLDN18.2 was analyzed by flow cytometry (FIG. 3).
(§2) A PE-coupled secondary anti-human IgG antibody was added to the cells for additional 30 min at 4° C. after washes with the FC buffer, followed by further washes with FC buffer. The cells were then resuspended in 100 μl FC buffer and measured with a FACSCalibur™ cell analyzer (BD Biosciences, USA).

human CLDN18.2 [2] = target: T1, human CLDN18.2; experiment: flow cytometry, live cells from mouse tumor of A549 cells expressing CLDN18.2, antibody 4 µg/ml
Description: (§3) Two Balb/c mice were implanted subcutaneously with 1×10⁶ A549 cells expressing CLDN18.2 in 100 μl of 50% Matrigel and tumors growth was monitored over a few weeks until the tumor reached the desired size between 150-450 mm 3. Healthy stomach tissue and tumor tissue was collected for FC analysis. The collected tissues were cut into small pieces and digested with the Miltenyi tumor dissociation kit (MACS Miltenyi Biotec, Germany). Tissue pieces were incubated with dissociation buffer (prepared according to the manufacturer instruction) in 6 well plates for 30 min in 37° C. under permanent gentle rocking motion. Samples were resuspended and strained through a 70 μm cell strainer (Corning, USA) followed by a wash with 20 ml FC buffer (PBS+2% FBS). Cell suspensions were centrifuged (5 min at 400 g for 4° C.) and the supernatants were discarded. If needed, cell suspensions were passed through a strainer and centrifuged repeatedly and pellets resuspended in 5 ml of red blood cell lysis buffer (Biolegend, USA), incubated on ice for 4 min. After incubation, 25 ml of PBS was added, and the suspensions were centrifuged again (5 min at 400 g for 4° C.). Pellets were resuspended in FC buffer (0.5-3 ml based on pellets). Equal number of cells were transferred into 96 well plates and further processed for FC analysis. The cells in the plates were washed with PBS and centrifuged (400 g for 2 min at 4° C.). […] After incubation, cells were washed twice in PBS and centrifuged (400 g for 2 min at 4° C.). Pellets were resuspended in 50 μl/well of secondary staining mix (PBS+PE-labelled anti-human antibody) (Thermo Fisher Scientific, USA), and incubated 25 min on ice. After incubation cells were washed again twice in PBS. Pellets were resuspended in 100 μl of PBS containing DAPI. Plates were kept on ice until FC analysis. For FC analysis, live cells were separated from dead cells by forward scatter and DAPI stain. Live cells were then gated for the presence of cytokeratin ([…]) and bound CLDN18.2 antibodies (PE positive cells).

human CLDN18.2 [3] = target: T1, human CLDN18.2; experiment: flow cytometry; % positive tumor cells divided by % positive healthy stomach cells
Description: as §3

human CLDN18.2 [4] = target: T1, human CLDN18.2; experiment: flow cytometry titration, HEK293T cells overexpressing CLDN18.2
Description: as §1, §2

| EC50 (human CLDN18.2 [1]) [µg/mL] | Max MFI (human CLDN18.2 [1]) [MFI] | % of positive tumor cells (Average) (human CLDN18.2 [2]) [%] | % of positive tumor cells (Mouse 1) (human CLDN18.2 [2]) [%] | % of positive tumor cells (Mouse 2) (human CLDN18.2 [2]) [%] | Ratio tumor/stomach (Average) (human CLDN18.2 [3]) | Ratio tumor/stomach (Mouse 1) (human CLDN18.2 [3]) | Ratio tumor/stomach (Mouse 2) (human CLDN18.2 [3]) | EC50 (human CLDN18.2 [4]) [µg/mL] | Max MFI (human CLDN18.2 [4]) [MFI] | Binder |
| --- | --- | --- | --- | --- | --- | --- | --- | --- | --- | --- |
| 2.14 | 1600 | 23 | 32 | 14 | 329 | 800 | 140 | 0.795 | 1720 | hCl1f (antibody, human IgG1, kappa, V domains shown, Humanized) VH: QVQLVQSGAEVKKPGASVKVSCKASGYTFTDYAMHWVRQAPGQRLEWMGWINAYTGKPTYAQKFQGRVTITRDTSASTAYMELSSLRSEDTAVYYCARAVFYGYTMDAWGQGTLVTVSS VL: DIQMTQSPSSLSASVGDRVTITCRASEDIYSNLAWYQQKPGKAPKLLIYSVKRLQDGVPSRFSGSGSGTDFTLTISSLQPEDFATYYCLQGSNFPLTFGQGTKVEIKR |
| 1.16 | 1700 |  |  |  |  |  |  | 0.408 | 1850 | hCl1j (antibody, human IgG1, kappa, V domains shown, Humanized) VH: QVQLVQSGAEVKKPGASVKVSCKASGYTFTDYAMYWVRQAPGQRLEWMGWINAYTGKPTYAQKFQGRVTITRDTSASTAYMELSSLRSEDTAVYYCARAVYYGYTMDAWGQGTLVTVSS VL: DIQMTQSPSSLSASVGDRVTITCRTSEDIYSNLAWYQQKPGKAPKLLIFAIKRLQDGVPSRFSGSGSGTDFTLTISSLQPEDFATYYCLQGSKFPLTFGQGTKVEIKR |
| 1.23 | 2090 |  |  |  |  |  |  | 0.444 | 2180 | hCl1i (antibody, human IgG1, kappa, V domains shown, Humanized) VH: QVQLVQSGAEVKKPGASVKVSCKASGYTFTDYAMYWVRQAPGQRLEWMGWINAYTGKPTYAQKFQGRVTITRDTSASTAYMELSSLRSEDTAVYYCARAVYYGYTMDAWGQGTLVTVSS VL: DIQMTQSPSSLSASVGDRVTITCRASEDIYSNLAWYQQKPGKAPKLLIFSVKRLQDGVPSRFSGSGSGTDFTLTISSLQPEDFATYYCLQGSNFPLTFGQGTKVEIKR |
| 1.75 | 1950 |  |  |  |  |  |  | 0.432 | 2080 | hCl1h (antibody, human IgG1, kappa, V domains shown, Humanized) VH: QVQLVQSGAEVKKPGASVKVSCKASGYTFTDYAMYWVRQAPGQRLEWMGWINAYTGKPTYAQKFQGRVTITRDTSASTAYMELSSLRSEDTAVYYCARAVYYGYTMDAWGQGTLVTVSS VL: DIQMTQSPSSLSASVGDRVTITCRASEDIYSNLAWYQQKPGKAPKLLIYSVKRLQDGVPSRFSGSGSGTDFTLTISSLQPEDFATYYCLQGSNFPLTFGQGTKVEIKR |
| 1.77 | 1250 |  |  |  |  |  |  | 0.678 | 1440 | hCl1g (antibody, human IgG1, kappa, V domains shown, Humanized) VH: QVQLVQSGAEVKKPGASVKVSCKASGYTFTDYAMHWVRQAPGQRLEWMGWINAYTGKPTYAQKFQGRVTITRDTSASTAYMELSSLRSEDTAVYYCARAVFYGYTMDAWGQGTLVTVSS VL: DIQMTQSPSSLSASVGDRVTITCRTSEDIYSNFAWYQQKPGKAPKLLIYSVNRLQDGVPSRFSGSGSGTDFTLTISSLQPEDFATYYCLQGSKFPLTFGQGTKVEIKR |

Second part, the binder before the results:

| Binder | EC50 (human CLDN18.2 [1]) [µg/mL] | Max MFI (human CLDN18.2 [1]) [MFI] | % of positive tumor cells (Average) (human CLDN18.2 [2]) [%] | % of positive tumor cells (Mouse 1) (human CLDN18.2 [2]) [%] | % of positive tumor cells (Mouse 2) (human CLDN18.2 [2]) [%] | Ratio tumor/stomach (Average) (human CLDN18.2 [3]) | Ratio tumor/stomach (Mouse 1) (human CLDN18.2 [3]) | Ratio tumor/stomach (Mouse 2) (human CLDN18.2 [3]) | EC50 (human CLDN18.2 [4]) [µg/mL] | Max MFI (human CLDN18.2 [4]) [MFI] |
| --- | --- | --- | --- | --- | --- | --- | --- | --- | --- | --- |
| hCl1a (antibody, human IgG1, kappa, V domains shown, Humanized) VH: QVQLVQSGAEVKKPGASVKVSCKASGYTFTDYAMHWVRQAPGQRLEWMGWINTYTGKPTYAQKFQGRVTITRDTSASTAYMELSSLRSEDTAVYYCARAVFYGYTMDAWGQGTLVTVSS VL: DIQMTQSPSSLSASVGDRVTITCRASEDIYSNLAWYQQKPGKAPKLLIFSVKRLQDGVPSRFSGSGSGTDFTLTISSLQPEDFATYYCLQGSNFPLTFGQGTKVEIKR | 2.43 | 1650 | 26 | 34 | 18 | 34.7 | 28.3 | 60 | 0.598 | 1880 |
| hCl1b (antibody, human IgG1, kappa, V domains shown, Humanized) VH: QVQLVQSGAEVKKPGASVKVSCKASGYTFTDYAMHWVRQAPGQRLEWMGWINTYTGKPTYSQKFQGRVTITRDTSASTAYMELSSLRSEDTAVYYCARAVFYGYTMDAWGQGTLVTVSS VL: DIQMTQSPSSLSASVGDRVTITCRASEDIYSNLAWYQQKPGKAPKLLIFSVKRLQDGVPSRFSGSGSGTDFTLTISSLQPEDFATYYCLQGSNFPLTFGQGTKVEIKR | 1.98 | 1720 | 30 | 43 | 17 | 53.1 | 43 | 131 | 0.572 | 1860 |
| hCl1d (antibody, human IgG1, kappa, V domains shown, Humanized) VH: QVQLVQSGAEVKKPGASVKVSCKASGYTFTDYAMHWVRQAPGQRLEWMGWINTYTGKPTYSQKFQGRVTITRDTSASTAYMELSSLRSEDTAVYYCARAVFYGYTMDAWGQGTLVTVSS VL: DIQMTQSPSSLSASVGDRVTITCRTSEDIYSNFAWYQQKPGKAPKLLIYSVNRLQDGVPSRFSGSGSGTDFTLTISSLQPEDFATYYCLQGSKFPLTFGQGTKVEIKR | 1.93 | 1530 |  |  |  |  |  |  | 0.541 | 1640 |
| hCl1c (antibody, human IgG1, kappa, V domains shown, Humanized) VH: QVQLVQSGAEVKKPGASVKVSCKASGYTFTDYAMHWVRQAPGQRLEWMGWINTYTGKPTYSQKFQGRVTITRDTSASTAYMELSSLRSEDTAVYYCARAVFYGYTMDAWGQGTLVTVSS VL: DIQMTQSPSSLSASVGDRVTITCRTSEDIYSNLAWYQQKPGKAPKLLIFAIKRLQDGVPSRFSGSGSGTDFTLTISSLQPEDFATYYCLQGSKFPLTFGQGTKVEIKR | 1.47 | 1050 | 18.5 | 29 | 8 | 74 | 290 | 20 | 0.753 | 1230 |
| hCl1e (antibody, human IgG1, kappa, V domains shown, Humanized) VH: QVQLVQSGAEVKKPGASVKVSCKASGYTFTDYAMYWVRQAPGQRLEWMGWINTYTGKPTYAQKFQGRVTITRDTSASTAYMELSSLRSEDTAVYYCARAVFYGYTMDAWGQGTLVTVSS VL: DIQMTQSPSSLSASVGDRVTITCRASEDIYSNLAWYQQKPGKAPKLLIFSVKRLQDGVPSRFSGSGSGTDFTLTISSLQPEDFATYYCLQGSNFPLTFGQGTKVEIKR | 2.24 | 1860 |  |  |  |  |  |  | 0.558 | 1940 |
| cCl1-1 (antibody, V domains shown, Chimeric antibody from a rat hybridoma; not built in; also called chimeric cCl1-1 antibody) VH: QIQLVQSGPELKKPGESVKISCKASGYTFTDYAMHWVKQAPGKGLKWMGWINTYTGKPTYADDFKGRFVFSLEASASTANLQISNLKNEDTATYFCARAVFYGYTMDAWGQGTSVTVSS VL: DIQMTQSPASLSASLGETISIACRASEDIYSNLAWYQQKSGKSPQLLIFSVKRLQDGVPSRFSGSGSGTQYSLKISGMQPEDEGDYFCLQGSNFPLTFGSGTKLEIK |  |  | 26 | 37 | 15 | 74.3 | 92.5 | 50 |  |  |
